Source: patent US20140357577A1, “HIV Membrane Fusion Inhibitors” (priority 2011, published 2014)
Starred links: 1 amine or outer side, 2 acyl side, 3 side chain; linkers in the order of their positions; H or OH if unused. Positions of bridges follow the written chain, without caps; N, C: chain ends. *: point of attachment. cholesteryl‑succinyl = CC(C)CCC[C@@H](C)[C@H]1CC[C@H]2[C@@H]3CC=C4C[C@@H](OC(=O)CCC(=O)*)CC[C@]4(C)[C@H]3CC[C@]12C; pXylylene = c1cc(C[*:2])ccc1C[*:1]; Suc = O=C(CCC(=O)[*:2])[*:1]

These binders were tested against gp41 of HIV-1 strain HXB2D with mutation V38A (HIV-1 strain HXB2D, UniProt P04578) (assay: cell-based or functional assay).

Row | Binder | fold change in EC50, HIV-HXB2D V38A mutant
1 | Ac-ACYFACIEALIRAAQEQQEKNEAALR-NH2 (linker 2-6 via pXylylene; SMILES CC[C@H](C)[C@H](NC(=O)[C@H](CC(C)C)NC(=O)[C@H](C)NC(=O)[C@H](CCC(=O)O)NC(=O)[C@@H](NC(=O)[C@@H]1CSCc2ccc(cc2)CSC[C@H](NC(=O)[C@H](C)NC(C)=O)C(=O)N[C@@H](Cc2ccc(O)cc2)C(=O)N[C@@H](Cc2ccccc2)C(=O)N[C@@H](C)C(=O)N1)[C@@H](C)CC)C(=O)N[C@@H](CCCNC(=N)N)C(=O)N[C@@H](C)C(=O)N[C@@H](C)C(=O)N[C@@H](CCC(N)=O)C(=O)N[C@@H](CCC(=O)O)C(=O)N[C@@H](CCC(N)=O)C(=O)N[C@@H](CCC(N)=O)C(=O)N[C@@H](CCC(=O)O)C(=O)N[C@@H](CCCCN)C(=O)N[C@@H](CC(N)=O)C(=O)N[C@@H](CCC(=O)O)C(=O)N[C@@H](C)C(=O)N[C@@H](C)C(=O)N[C@@H](CC(C)C)C(=O)N[C@@H](CCCNC(=N)N)C(N)=O) [peptide 61] | 20 fold
2 | Ac-ANYLALIEALIRAAQEQQEKNEAALRGSGK(cholesteryl‑succinyl)-NH2 (SMILES CC[C@H](C)[C@H](NC(=O)[C@H](CC(C)C)NC(=O)[C@H](C)NC(=O)[C@H](CCC(=O)O)NC(=O)[C@@H](NC(=O)[C@H](CC(C)C)NC(=O)[C@H](C)NC(=O)[C@H](CC(C)C)NC(=O)[C@H](Cc1ccc(O)cc1)NC(=O)[C@H](CC(N)=O)NC(=O)[C@H](C)NC(C)=O)[C@@H](C)CC)C(=O)N[C@@H](CCCNC(=N)N)C(=O)N[C@@H](C)C(=O)N[C@@H](C)C(=O)N[C@@H](CCC(N)=O)C(=O)N[C@@H](CCC(=O)O)C(=O)N[C@@H](CCC(N)=O)C(=O)N[C@@H](CCC(N)=O)C(=O)N[C@@H](CCC(=O)O)C(=O)N[C@@H](CCCCN)C(=O)N[C@@H](CC(N)=O)C(=O)N[C@@H](CCC(=O)O)C(=O)N[C@@H](C)C(=O)N[C@@H](C)C(=O)N[C@@H](CC(C)C)C(=O)N[C@@H](CCCNC(=N)N)C(=O)NCC(=O)N[C@@H](CO)C(=O)NCC(=O)N[C@@H](CCCCNC(=O)CCC(=O)O[C@H]1CC[C@@]2(C)C(=CC[C@H]3[C@@H]4CC[C@H]([C@H](C)CCCC(C)C)[C@@]4(C)CC[C@@H]32)C1)C(N)=O) [peptide 69] | 1 fold
3 | Ac-ACYAACIEALIRAAQEQQEKNEAALR-NH2 (linker 2-6 via meta‑xylene) [peptide 65] | 16 fold
4 | Ac-ACYAACIDALIRAAQEQQEKNEAALR-NH2 (linker 2-6 via pXylylene; SMILES CC[C@H](C)[C@H](NC(=O)[C@H](CC(C)C)NC(=O)[C@H](C)NC(=O)[C@H](CC(=O)O)NC(=O)[C@@H](NC(=O)[C@@H]1CSCc2ccc(cc2)CSC[C@H](NC(=O)[C@H](C)NC(C)=O)C(=O)N[C@@H](Cc2ccc(O)cc2)C(=O)N[C@@H](C)C(=O)N[C@@H](C)C(=O)N1)[C@@H](C)CC)C(=O)N[C@@H](CCCNC(=N)N)C(=O)N[C@@H](C)C(=O)N[C@@H](C)C(=O)N[C@@H](CCC(N)=O)C(=O)N[C@@H](CCC(=O)O)C(=O)N[C@@H](CCC(N)=O)C(=O)N[C@@H](CCC(N)=O)C(=O)N[C@@H](CCC(=O)O)C(=O)N[C@@H](CCCCN)C(=O)N[C@@H](CC(N)=O)C(=O)N[C@@H](CCC(=O)O)C(=O)N[C@@H](C)C(=O)N[C@@H](C)C(=O)N[C@@H](CC(C)C)C(=O)N[C@@H](CCCNC(=N)N)C(N)=O) [peptide 70] | 11 fold
5 | Ac-ACYAACIEALIRAAQEQQEKNEAALR-NH2 (linker 2-6 via pXylylene; SMILES CC[C@H](C)[C@H](NC(=O)[C@H](CC(C)C)NC(=O)[C@H](C)NC(=O)[C@H](CCC(=O)O)NC(=O)[C@@H](NC(=O)[C@@H]1CSCc2ccc(cc2)CSC[C@H](NC(=O)[C@H](C)NC(C)=O)C(=O)N[C@@H](Cc2ccc(O)cc2)C(=O)N[C@@H](C)C(=O)N[C@@H](C)C(=O)N1)[C@@H](C)CC)C(=O)N[C@@H](CCCNC(=N)N)C(=O)N[C@@H](C)C(=O)N[C@@H](C)C(=O)N[C@@H](CCC(N)=O)C(=O)N[C@@H](CCC(=O)O)C(=O)N[C@@H](CCC(N)=O)C(=O)N[C@@H](CCC(N)=O)C(=O)N[C@@H](CCC(=O)O)C(=O)N[C@@H](CCCCN)C(=O)N[C@@H](CC(N)=O)C(=O)N[C@@H](CCC(=O)O)C(=O)N[C@@H](C)C(=O)N[C@@H](C)C(=O)N[C@@H](CC(C)C)C(=O)N[C@@H](CCCNC(=N)N)C(N)=O) [peptide 68] | 21 fold
6 | Suc-ACYAACIEALIRAAQEQQEKNEAALR-NH2 (linker 2-6 via pXylylene; SMILES CC[C@H](C)[C@H](NC(=O)[C@H](CC(C)C)NC(=O)[C@H](C)NC(=O)[C@H](CCC(=O)O)NC(=O)[C@@H](NC(=O)[C@@H]1CSCc2ccc(cc2)CSC[C@H](NC(=O)[C@H](C)NC(=O)CCC(=O)O)C(=O)N[C@@H](Cc2ccc(O)cc2)C(=O)N[C@@H](C)C(=O)N[C@@H](C)C(=O)N1)[C@@H](C)CC)C(=O)N[C@@H](CCCNC(=N)N)C(=O)N[C@@H](C)C(=O)N[C@@H](C)C(=O)N[C@@H](CCC(N)=O)C(=O)N[C@@H](CCC(=O)O)C(=O)N[C@@H](CCC(N)=O)C(=O)N[C@@H](CCC(N)=O)C(=O)N[C@@H](CCC(=O)O)C(=O)N[C@@H](CCCCN)C(=O)N[C@@H](CC(N)=O)C(=O)N[C@@H](CCC(=O)O)C(=O)N[C@@H](C)C(=O)N[C@@H](C)C(=O)N[C@@H](CC(C)C)C(=O)N[C@@H](CCCNC(=N)N)C(N)=O) [peptide 67] | 30 fold
7 | Ac-ACYAACIEALIRKAQEQQEKNEAALR-NH2 (linker 2-6 via pXylylene; SMILES CC[C@H](C)[C@H](NC(=O)[C@@H]1CSCc2ccc(cc2)CSC[C@H](NC(=O)[C@H](C)NC(C)=O)C(=O)N[C@@H](Cc2ccc(O)cc2)C(=O)N[C@@H](C)C(=O)N[C@@H](C)C(=O)N1)C(=O)N[C@@H](CCC(=O)O)C(=O)N[C@@H](C)C(=O)N[C@@H](CC(C)C)C(=O)N[C@H](C(=O)N[C@@H](CCCNC(=N)N)C(=O)N[C@@H](CCCCN)C(=O)N[C@@H](C)C(=O)N[C@@H](CCC(N)=O)C(=O)N[C@@H](CCC(=O)O)C(=O)N[C@@H](CCC(N)=O)C(=O)N[C@@H](CCC(N)=O)C(=O)N[C@@H](CCC(=O)O)C(=O)N[C@@H](CCCCN)C(=O)N[C@@H](CC(N)=O)C(=O)N[C@@H](CCC(=O)O)C(=O)N[C@@H](C)C(=O)N[C@@H](C)C(=O)N[C@@H](CC(C)C)C(=O)N[C@@H](CCCNC(=N)N)C(N)=O)[C@@H](C)CC) [peptide 71] | 11 fold
8 | Ac-ACYVACIEALIRAAQEQQEKNEAALR-NH2 (linker 2-6 via pXylylene; SMILES CC[C@H](C)[C@H](NC(=O)[C@H](CC(C)C)NC(=O)[C@H](C)NC(=O)[C@H](CCC(=O)O)NC(=O)[C@@H](NC(=O)[C@@H]1CSCc2ccc(cc2)CSC[C@H](NC(=O)[C@H](C)NC(C)=O)C(=O)N[C@@H](Cc2ccc(O)cc2)C(=O)N[C@@H](C(C)C)C(=O)N[C@@H](C)C(=O)N1)[C@@H](C)CC)C(=O)N[C@@H](CCCNC(=N)N)C(=O)N[C@@H](C)C(=O)N[C@@H](C)C(=O)N[C@@H](CCC(N)=O)C(=O)N[C@@H](CCC(=O)O)C(=O)N[C@@H](CCC(N)=O)C(=O)N[C@@H](CCC(N)=O)C(=O)N[C@@H](CCC(=O)O)C(=O)N[C@@H](CCCCN)C(=O)N[C@@H](CC(N)=O)C(=O)N[C@@H](CCC(=O)O)C(=O)N[C@@H](C)C(=O)N[C@@H](C)C(=O)N[C@@H](CC(C)C)C(=O)N[C@@H](CCCNC(=N)N)C(N)=O) [peptide 62] | 15 fold
9 | Ac-ACYAACIEALIRAAQEQQEKNEAALR-NH2 (linker 2-6 via 2,7‑dimethylnaphthyl) [peptide 66] | 66 fold
10 | Ac-ACYWACIEALIRAAQEQQEKNEAALR-NH2 (linker 2-6 via pXylylene; SMILES CC[C@H](C)[C@H](NC(=O)[C@H](CC(C)C)NC(=O)[C@H](C)NC(=O)[C@H](CCC(=O)O)NC(=O)[C@@H](NC(=O)[C@@H]1CSCc2ccc(cc2)CSC[C@H](NC(=O)[C@H](C)NC(C)=O)C(=O)N[C@@H](Cc2ccc(O)cc2)C(=O)N[C@@H](Cc2c[nH]c3ccccc23)C(=O)N[C@@H](C)C(=O)N1)[C@@H](C)CC)C(=O)N[C@@H](CCCNC(=N)N)C(=O)N[C@@H](C)C(=O)N[C@@H](C)C(=O)N[C@@H](CCC(N)=O)C(=O)N[C@@H](CCC(=O)O)C(=O)N[C@@H](CCC(N)=O)C(=O)N[C@@H](CCC(N)=O)C(=O)N[C@@H](CCC(=O)O)C(=O)N[C@@H](CCCCN)C(=O)N[C@@H](CC(N)=O)C(=O)N[C@@H](CCC(=O)O)C(=O)N[C@@H](C)C(=O)N[C@@H](C)C(=O)N[C@@H](CC(C)C)C(=O)N[C@@H](CCCNC(=N)N)C(N)=O) [peptide 63] | 22 fold
11 | Ac-ACYAACIEALIRAAQEQQEKNEAALR-NH2 (linker 2-6 via ortho‑xylene) [peptide 64] | 15 fold
12 | Suc-ANYAALIEALIRAAQEQQEKNEAALR-NH2 (SMILES CC[C@H](C)[C@H](NC(=O)[C@H](CC(C)C)NC(=O)[C@H](C)NC(=O)[C@H](CCC(=O)O)NC(=O)[C@@H](NC(=O)[C@H](CC(C)C)NC(=O)[C@H](C)NC(=O)[C@H](C)NC(=O)[C@H](Cc1ccc(O)cc1)NC(=O)[C@H](CC(N)=O)NC(=O)[C@H](C)NC(=O)CCC(=O)O)[C@@H](C)CC)C(=O)N[C@@H](CCCNC(=N)N)C(=O)N[C@@H](C)C(=O)N[C@@H](C)C(=O)N[C@@H](CCC(N)=O)C(=O)N[C@@H](CCC(=O)O)C(=O)N[C@@H](CCC(N)=O)C(=O)N[C@@H](CCC(N)=O)C(=O)N[C@@H](CCC(=O)O)C(=O)N[C@@H](CCCCN)C(=O)N[C@@H](CC(N)=O)C(=O)N[C@@H](CCC(=O)O)C(=O)N[C@@H](C)C(=O)N[C@@H](C)C(=O)N[C@@H](CC(C)C)C(=O)N[C@@H](CCCNC(=N)N)C(N)=O) [peptide 3] | 74 fold
